Measurements from paper PMC4580526 (Journal of bone and mineral research : the official journal …, 2015).
Substitutions are numbered along the chain they refer to.

B1: [Cys25]PTH(1-84): mutant hormone with arginine-to-cysteine mutation at position 25 of mature PTH(1-84) (protein, UniProt P01270 32-115, looked up, variant R25C)
Parathyroid hormone: SVSEIQLMHNLGKHLNSMERVEWLCKKLQDVHNFVALGAPLAPRDAGSQRPRKKEDNVLVESHEKSLGEADKADVNVLTKAKSQ
modifications: Parathyroid hormone
B2: PTH(1-84): wild-type hormone expressed from plasmid encoding wild-type preproPTH in COS-7 cells (protein, UniProt P01270 32-115, looked up)
Parathyroid hormone: B1 Parathyroid hormone with C25R
modifications: Parathyroid hormone

How the values were obtained:
[1] = target: PTH receptor type-1 (PTH1R), wild-type human (human) (UniProt Q03431)
Sequence of UniProt Q03431 (Q03431 27-593): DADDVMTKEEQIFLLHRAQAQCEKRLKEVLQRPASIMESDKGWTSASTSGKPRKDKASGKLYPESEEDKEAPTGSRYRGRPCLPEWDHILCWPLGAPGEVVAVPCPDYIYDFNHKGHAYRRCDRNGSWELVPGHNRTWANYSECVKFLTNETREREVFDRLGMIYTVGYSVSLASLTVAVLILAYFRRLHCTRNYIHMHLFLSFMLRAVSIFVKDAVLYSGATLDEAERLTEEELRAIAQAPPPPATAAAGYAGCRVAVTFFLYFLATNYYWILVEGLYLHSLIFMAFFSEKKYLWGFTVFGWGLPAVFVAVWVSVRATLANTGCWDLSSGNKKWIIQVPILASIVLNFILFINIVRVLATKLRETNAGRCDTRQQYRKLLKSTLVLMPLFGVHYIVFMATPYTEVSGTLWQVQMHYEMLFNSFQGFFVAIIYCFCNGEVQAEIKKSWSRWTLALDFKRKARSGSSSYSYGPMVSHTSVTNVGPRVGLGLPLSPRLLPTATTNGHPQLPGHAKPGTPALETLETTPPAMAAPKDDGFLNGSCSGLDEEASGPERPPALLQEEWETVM

[2] = target: PTH receptor type-1 (PTH1R), wild-type human (human) (UniProt Q03431); test: radioligand binding
COS-7 cells = test: Secretion of PTH into conditioned medium of transfected COS-7 cells; assay type: cell-based; details: for PTH level in conditioned medium, PTH(1-84) assay / PTH level in conditioned medium, ntPTH assay: 48 hours after transfection, mean ± SEM

Molecule	PLC/IP signaling EC50, IP1 in GP-2.3 cells (Cisbio IP1 assay kit) [1] [nM]	cAMP signaling EC50, Glosensor luminescence in SGS-72 cells (SaOS-2-derived) [1] [nM]	IC50 [2] [nM]	PTH level in conditioned medium, PTH(1-84) assay (COS-7 cells) [pg/mL]	PTH level in conditioned medium, ntPTH assay (COS-7 cells) [pg/mL]	secretion of mutant hormone into the medium (COS-7 cells; transfected COS-7 cells)
[Cys25]PTH(1-34) (peptide)	265	0.27	12.3			
B1				1812 ± 175	30.9 ± 23	efficiently secreted into the medium
B2				1812 ± 94	2285 ± 277	
